Common to all, as to settings: both partners purified
For test [1], the target named is T1, recombinant Fc-tag-fused human Notch-1 extracellular domain (Homo sapiens, UniProt P46531).
T1 construct: Notch-1, human, extracellular domain; No catalogue number and no residue limits are printed; also called N1; source: bought: R&D Systems
Kind of test: BLI; Octet RED384; Fabs immobilised on amine-reactive generation-2 or anti-Fab CH1 biosensors, target proteins in solution at three or more concentrations; 25 C, PBS; global 1:1 fit; apparent KD (Fc-Notch proteins may dimerize, avidity).
T1 sequence (P46531 19-1735): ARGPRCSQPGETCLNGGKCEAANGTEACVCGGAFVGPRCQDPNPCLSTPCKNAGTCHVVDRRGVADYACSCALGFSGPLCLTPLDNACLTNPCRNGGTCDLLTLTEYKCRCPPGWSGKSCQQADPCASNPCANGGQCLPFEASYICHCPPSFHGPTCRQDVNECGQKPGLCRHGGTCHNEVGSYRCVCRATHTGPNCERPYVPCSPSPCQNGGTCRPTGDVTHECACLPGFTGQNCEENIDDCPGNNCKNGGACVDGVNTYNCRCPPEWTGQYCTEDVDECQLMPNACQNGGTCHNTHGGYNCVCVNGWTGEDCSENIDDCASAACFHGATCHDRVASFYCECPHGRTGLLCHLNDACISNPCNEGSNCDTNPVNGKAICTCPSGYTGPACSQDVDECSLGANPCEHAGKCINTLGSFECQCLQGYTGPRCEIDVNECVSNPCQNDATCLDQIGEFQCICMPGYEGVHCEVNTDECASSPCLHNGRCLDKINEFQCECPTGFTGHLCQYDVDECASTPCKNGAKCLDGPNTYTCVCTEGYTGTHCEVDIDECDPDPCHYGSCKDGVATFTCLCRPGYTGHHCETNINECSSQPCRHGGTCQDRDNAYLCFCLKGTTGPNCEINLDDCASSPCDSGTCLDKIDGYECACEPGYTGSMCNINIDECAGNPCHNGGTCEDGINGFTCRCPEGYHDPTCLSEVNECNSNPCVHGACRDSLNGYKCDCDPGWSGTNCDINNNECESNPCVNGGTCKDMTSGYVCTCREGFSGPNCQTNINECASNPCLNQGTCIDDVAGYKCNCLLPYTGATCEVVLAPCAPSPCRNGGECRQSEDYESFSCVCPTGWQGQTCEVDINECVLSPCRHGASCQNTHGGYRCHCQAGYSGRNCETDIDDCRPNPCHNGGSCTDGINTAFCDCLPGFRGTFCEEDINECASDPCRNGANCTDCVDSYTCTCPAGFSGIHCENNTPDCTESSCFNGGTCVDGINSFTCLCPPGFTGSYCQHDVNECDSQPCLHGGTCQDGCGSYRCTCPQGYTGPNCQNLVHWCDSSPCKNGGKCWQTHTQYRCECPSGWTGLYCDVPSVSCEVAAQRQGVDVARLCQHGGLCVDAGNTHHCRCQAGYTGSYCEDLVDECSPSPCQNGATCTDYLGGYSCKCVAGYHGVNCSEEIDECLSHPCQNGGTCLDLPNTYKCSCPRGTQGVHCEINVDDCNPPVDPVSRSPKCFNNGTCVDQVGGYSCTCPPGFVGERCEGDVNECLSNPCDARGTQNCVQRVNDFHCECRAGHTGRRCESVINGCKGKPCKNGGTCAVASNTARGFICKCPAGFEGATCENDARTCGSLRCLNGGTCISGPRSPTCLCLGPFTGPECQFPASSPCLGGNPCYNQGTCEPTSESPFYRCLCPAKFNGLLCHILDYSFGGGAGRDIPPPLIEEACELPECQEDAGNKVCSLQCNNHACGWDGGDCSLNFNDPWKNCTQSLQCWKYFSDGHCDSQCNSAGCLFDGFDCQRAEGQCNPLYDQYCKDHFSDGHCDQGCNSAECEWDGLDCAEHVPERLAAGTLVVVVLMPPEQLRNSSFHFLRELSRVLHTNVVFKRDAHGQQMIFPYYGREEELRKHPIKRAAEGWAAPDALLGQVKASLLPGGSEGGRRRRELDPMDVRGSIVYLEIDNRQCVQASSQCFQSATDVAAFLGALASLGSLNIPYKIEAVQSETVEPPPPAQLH

The target in test [2] is T2, Jagged-2 receptor ectodomain (Homo sapiens (assumed), UniProt Q9Y219).
T2 construct: Jagged-2 ectodomain; it may be an Fc fusion like the Notch proteins; also called J2
The description is as above.
T2 sequence (Q9Y219 27-1080): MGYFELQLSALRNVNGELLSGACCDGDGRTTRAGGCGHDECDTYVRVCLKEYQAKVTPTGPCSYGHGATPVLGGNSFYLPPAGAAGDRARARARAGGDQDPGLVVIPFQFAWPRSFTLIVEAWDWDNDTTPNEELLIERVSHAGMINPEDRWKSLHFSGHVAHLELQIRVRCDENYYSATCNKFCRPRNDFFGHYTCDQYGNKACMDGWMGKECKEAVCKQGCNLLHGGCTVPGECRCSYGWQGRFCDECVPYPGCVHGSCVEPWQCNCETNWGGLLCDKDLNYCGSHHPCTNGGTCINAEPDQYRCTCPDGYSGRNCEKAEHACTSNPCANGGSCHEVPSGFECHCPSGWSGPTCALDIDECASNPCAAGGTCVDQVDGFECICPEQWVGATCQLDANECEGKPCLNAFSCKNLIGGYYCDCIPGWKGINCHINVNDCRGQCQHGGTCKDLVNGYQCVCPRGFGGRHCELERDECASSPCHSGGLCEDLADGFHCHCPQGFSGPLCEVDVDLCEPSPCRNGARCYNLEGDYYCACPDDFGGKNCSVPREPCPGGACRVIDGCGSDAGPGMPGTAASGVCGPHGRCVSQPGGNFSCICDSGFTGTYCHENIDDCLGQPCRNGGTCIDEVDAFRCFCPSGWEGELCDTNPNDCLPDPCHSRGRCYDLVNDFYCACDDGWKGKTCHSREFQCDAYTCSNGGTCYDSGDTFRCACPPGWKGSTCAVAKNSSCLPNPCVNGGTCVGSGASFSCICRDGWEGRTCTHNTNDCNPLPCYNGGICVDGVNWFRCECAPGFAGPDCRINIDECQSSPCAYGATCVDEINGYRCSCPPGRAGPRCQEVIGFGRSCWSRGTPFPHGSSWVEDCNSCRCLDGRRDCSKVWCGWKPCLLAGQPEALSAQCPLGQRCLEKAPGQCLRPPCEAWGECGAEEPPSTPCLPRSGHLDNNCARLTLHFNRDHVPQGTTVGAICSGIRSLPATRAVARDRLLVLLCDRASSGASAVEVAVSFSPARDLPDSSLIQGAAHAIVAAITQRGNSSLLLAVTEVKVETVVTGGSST

Test [3] deals with T1, recombinant Fc-tag-fused human Notch-1 …. The test is described as follows: ELISA; multi-point Fab-ELISA: target immobilised at 5 ug/ml on MaxiSorp plates; purified Fab 0.01 nM-1 uM in PT for 30 min; detected with HRP-conjugated anti-HIS antibody; EC50 from a one-site specific-binding fit. A general note: An ELISA detects its analyte on a solid surface through an enzyme-linked reagent.

Test [4] deals with T3, recombinant Fc-tag-fused human Notch-1 extracellular domain (Homo sapiens, UniProt P46531).
T3 construct: Notch-1, human, extracellular domain; the R&D Systems product may hold only part of the ectodomain (surmise); also called N1; Fc-Notch; source: bought: R&D Systems
Kind of test: BLI; Fabs immobilised on amine-reactive generation-2 or anti-Fab CH1 biosensors, target proteins in solution at at least three concentrations; 25°C, PBS; global fit to a 1:1 binding model; apparent constants (Fc fusions may dimerize). (In BLI a coated tip is dipped into the sample, and binding shifts an interference pattern.)
T3 sequence (P46531 19-1735): as the sequence (P46531 19-1735) above

In test [5] the target is T4, Jagged-2 receptor ectodomain (Homo sapiens (assumed), UniProt Q9Y219).
T4 construct: Jagged-2 ectodomain; Probably an Fc fusion like the Notch proteins (surmise); also called J2
The description is as above.
T4 sequence (Q9Y219 27-1080): as the sequence (Q9Y219 27-1080) above

B1: Fab N1/F/R2 (purified soluble Fab) (Fab, V domains shown)
VH: EVQLVESGGGLVQPGGSLRLSCAASGFNFSSSSIHWVRQAPGKGLEWVASIYSYYGYTYYADSVKGRFTISADTSKNTAYLQMNSLRAEDTAVYYCARSWWGGSWYAALDYWGQGTLVTVSS
VL: DIQMTQSPSSLSASVGDRVTITCRASQSVSSAVAWYQQKPGKAPKLLIYSASSLYSGVPSRFSGSRSGTDFTLTISSLQPEDFATYYCQQWWSLITFGQGTKVEIK
notes: light chain on the modified trastuzumab framework of Library-F (Persson et al., 2013); CDRs L1 and L2 fixed; clone reconstructed from NGS information; Fab heavy chain on the modified trastuzumab framework of Library-F; medium CDRH3 length; The Fab is detected by an anti-HIS antibody; source: E. coli BL21, purified (Protein-L resin)
For the molecule B1, the Kd in test [1] stood at 1.38 nM; in test [2] it was 70.4 ± 2.3 nM. For the same molecule, the EC50 in test [3] was ~4 nM.

B2: Fab N1/F/R2 (Fab, V domains shown)
VH: EVQLVESGGGLVQPGGSLRLSCAASGFNFSSSSIHWVRQAPGKGLEWVASIYSYYGYTYYADSVKGRFTISADTSKNTAYLQMNSLRAEDTAVYYCARSWWGGSWYAALDYWGQGTLVTVSS
VL: DIQMTQSPSSLSASVGDRVTITCRASQSVSSAVAWYQQKPGKAPKLLIYSASSLYSGVPSRFSGSRSGTDFTLTISSLQPEDFATYYCQQWWSLITFGQGTKVEIK
notes: Library-F rare Fab reconstructed from NGS information, modified trastuzumab framework; Library-F rare Fab reconstructed from NGS information, modified trastuzumab framework, CDRs L1 and L2 fixed; The Fab has a His tag (detected with anti-HIS antibody and biosensors); Library-F framework: Persson et al., 2013; source: E. coli BL21, purified (Protein-L resin)
For the molecule B2, the koff stood at 6.91e-05 s⁻¹ in test [4] and 0.0226 s⁻¹ in test [5]. Further, the kon stood at 54400 M⁻¹ s⁻¹ in test [4] and 313000 M⁻¹ s⁻¹ in test [5].

A word on the EC50: it is the midpoint of the concentration-response curve. What is called koff is a measure of how fast the partners let go of each other. In general, kon refers to the rate constant with which the complex forms.

Values taken from paper PMC9381698, “Generation of synthetic antibody fragments with optimal complementarity determining region lengths for Notch-1 recognition” (Frontiers in Microbiology, 2022).
